The values below come from patent publication US10654939.

Usually EC50 stands for the concentration giving half of the maximal effect. A word on the Kd: it is the constant that tells how readily two partners part at equilibrium. Usually koff stands for the rate constant with which the complex falls apart. The kon is the rate constant with which the complex forms.

Assay [1] concerns the target human CD40 expressed on cells (human) (UniProt P25942). The experiment in a line: cell-based or functional assay.
The target of assay [2] is recombinant rhesus CD40 (ECD)-hFc (rhesus monkey). The assay can be described thus: ELISA, rhCD40(ECD)-hFc coated. For orientation: ELISA stands for enzyme-linked immunosorbent assay.
Assay [3] deals with rhesus CD40 expressed on HEK293A cells (rhesus monkey). The experiment in a line: FACS, HEK293A/rhesusCD40 cells. (In flow cytometry, cells or beads pass a laser one at a time.)
Assay [4] addresses recombinant human CD40 (ECD)-his (human) (UniProt P25942). The assay can be described thus: ELISA, hCD40(ECD)-his coated.
The target of assay [5] is human CD40 expressed on cells (human) (UniProt P25942). The experiment in a line: FACS, HEK293A/humanCD40 cells.
For assay [6], the target named is recombinant human CD40 (ECD)-his (human) (UniProt P25942). The assay can be described thus: SPR (Biacore 8K), hCD40(ECD)-his coupled to chip, antibody injected. (In SPR one partner is held on a chip, and binding of the other changes the refractive index at the surface.)
Sequence of recombinant human CD40 (ECD)-his (human) (P25942 21-193): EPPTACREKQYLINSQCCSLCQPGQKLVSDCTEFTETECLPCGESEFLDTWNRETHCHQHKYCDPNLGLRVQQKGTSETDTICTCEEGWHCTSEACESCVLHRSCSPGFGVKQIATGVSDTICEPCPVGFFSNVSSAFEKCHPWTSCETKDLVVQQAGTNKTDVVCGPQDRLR

Sequence of human CD40 expressed on cells (human) (P25942 21-277 limits assumed): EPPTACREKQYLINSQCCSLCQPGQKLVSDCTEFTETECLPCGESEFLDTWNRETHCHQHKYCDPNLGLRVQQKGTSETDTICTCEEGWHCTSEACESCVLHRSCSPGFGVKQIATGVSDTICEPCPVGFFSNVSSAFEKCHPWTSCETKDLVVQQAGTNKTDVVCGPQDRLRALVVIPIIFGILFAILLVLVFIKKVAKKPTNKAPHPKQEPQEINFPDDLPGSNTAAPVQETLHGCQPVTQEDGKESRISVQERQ
Sequence of recombinant rhesus CD40 (ECD)-hFc (rhesus monkey) (P25942 other isoform, or with tags, fused parts or gaps): as the sequence (P25942 21-193) above, with G43S, H56R, W89L, T92M, A95S, L101P, S106L, H142R, L172Q counted along it
Sequence of rhesus CD40 expressed on HEK293A cells (rhesus monkey) (P25942 other isoform, or with tags, fused parts or gaps limits assumed): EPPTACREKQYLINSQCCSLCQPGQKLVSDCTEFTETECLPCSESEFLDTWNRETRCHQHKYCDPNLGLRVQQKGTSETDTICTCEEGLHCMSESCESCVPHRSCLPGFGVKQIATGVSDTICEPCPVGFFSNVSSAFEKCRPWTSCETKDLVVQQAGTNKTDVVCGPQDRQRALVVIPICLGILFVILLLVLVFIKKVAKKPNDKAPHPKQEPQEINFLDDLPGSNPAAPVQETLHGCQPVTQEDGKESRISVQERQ

B1: ADC1013 (antibody, INN chains, looked up, V domains shown)
VH: EVQLLESGGGLVQPGGSLRLSCAASGFTFSTYGMHWVRQAPGKGLEWLSYISGGSSYIFYADSVRGRFTISRDNSENALYLQMNSLRAEDTAVYYCARILRGGSGMDLWGQGTLVTVSS
VL: QSVLTQPPSASGTPGQRVTISCTGSSSNIGAGYNVYWYQQLPGTAPKLLIYGNINRPSGVPDRFSGSKSGTSASLAISGLRSEDEADYYCAAWDKSISGLVFGGGTKLTVL
modifications: IgG1/kappa
Molecule B1 came in with an HEK Blue EC50 in assay [1] of 1.03 µg/mL. Besides, the EC50 in assay [2] was determined as 0.0229 µg/mL; in assay [3], 0.0673 µg/mL; in assay [4], 0.024 µg/mL; in assay [5], 0.149 µg/mL. In addition, the Kd in assay [6] was found to be 29 nM. Also, the koff in assay [6] worked out at 0.0348 s⁻¹. For the same molecule, in assay [6], the kon is 1.2e+06 M⁻¹ s⁻¹.
